Patent US20250042994A1 (HAINAN SIMCERE ZAIMING PHARMACEUTICAL, published 2025)

Key:
[1] = target: T1, cynomolgus monkey CD19 on peripheral blood B cells (cynomolgus monkey (Macaca fascicularis), UniProt A0A2K5W8L9 20-557); test: FACS, cynomolgus PBMC, CD20+ B cells
T1 construct: whole, on cells; also called cynomolgus monkey B cells
T1 sequence: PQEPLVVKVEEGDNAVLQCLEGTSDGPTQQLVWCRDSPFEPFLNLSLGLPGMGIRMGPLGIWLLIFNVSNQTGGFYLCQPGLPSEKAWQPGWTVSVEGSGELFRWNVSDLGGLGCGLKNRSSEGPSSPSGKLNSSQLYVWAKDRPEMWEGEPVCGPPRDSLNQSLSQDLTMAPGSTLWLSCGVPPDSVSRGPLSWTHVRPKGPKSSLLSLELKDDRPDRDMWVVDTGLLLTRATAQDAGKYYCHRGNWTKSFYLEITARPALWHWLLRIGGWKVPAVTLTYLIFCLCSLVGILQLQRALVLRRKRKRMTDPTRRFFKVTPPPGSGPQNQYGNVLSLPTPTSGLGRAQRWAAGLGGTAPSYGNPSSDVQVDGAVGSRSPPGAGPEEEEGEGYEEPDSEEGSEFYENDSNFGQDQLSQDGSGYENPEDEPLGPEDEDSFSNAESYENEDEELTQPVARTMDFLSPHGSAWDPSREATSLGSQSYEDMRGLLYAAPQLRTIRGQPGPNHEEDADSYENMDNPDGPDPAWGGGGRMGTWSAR

human CD19 on Raji cells = target: T2, human CD19 on Raji cells (human, UniProt P15391 20-556); test: FACS on Raji cells
T2 construct: whole, on cells
T2 sequence (looked up): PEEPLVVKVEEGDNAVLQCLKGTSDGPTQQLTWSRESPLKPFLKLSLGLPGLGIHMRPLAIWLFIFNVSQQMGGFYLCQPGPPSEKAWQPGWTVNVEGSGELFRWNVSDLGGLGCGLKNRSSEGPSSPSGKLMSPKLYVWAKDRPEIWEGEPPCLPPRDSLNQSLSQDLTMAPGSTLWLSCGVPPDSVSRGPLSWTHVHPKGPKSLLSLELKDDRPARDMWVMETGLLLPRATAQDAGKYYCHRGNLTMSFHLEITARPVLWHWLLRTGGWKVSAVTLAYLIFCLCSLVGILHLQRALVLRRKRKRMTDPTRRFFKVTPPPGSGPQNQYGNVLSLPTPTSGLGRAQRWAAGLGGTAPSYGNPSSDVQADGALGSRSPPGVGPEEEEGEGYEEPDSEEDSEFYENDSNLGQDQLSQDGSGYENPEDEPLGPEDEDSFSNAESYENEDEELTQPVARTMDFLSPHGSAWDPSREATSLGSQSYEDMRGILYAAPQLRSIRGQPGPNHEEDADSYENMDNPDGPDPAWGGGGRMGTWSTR

[2] = target: T3, human CD19 on CHO-K1-human CD19 cells (human, UniProt P15391 20-556); test: FACS on CHO-K1-human CD19 cells
T3 construct: whole, on cells; also called CHO-K1-human CD19-2C8
T3 sequence (looked up): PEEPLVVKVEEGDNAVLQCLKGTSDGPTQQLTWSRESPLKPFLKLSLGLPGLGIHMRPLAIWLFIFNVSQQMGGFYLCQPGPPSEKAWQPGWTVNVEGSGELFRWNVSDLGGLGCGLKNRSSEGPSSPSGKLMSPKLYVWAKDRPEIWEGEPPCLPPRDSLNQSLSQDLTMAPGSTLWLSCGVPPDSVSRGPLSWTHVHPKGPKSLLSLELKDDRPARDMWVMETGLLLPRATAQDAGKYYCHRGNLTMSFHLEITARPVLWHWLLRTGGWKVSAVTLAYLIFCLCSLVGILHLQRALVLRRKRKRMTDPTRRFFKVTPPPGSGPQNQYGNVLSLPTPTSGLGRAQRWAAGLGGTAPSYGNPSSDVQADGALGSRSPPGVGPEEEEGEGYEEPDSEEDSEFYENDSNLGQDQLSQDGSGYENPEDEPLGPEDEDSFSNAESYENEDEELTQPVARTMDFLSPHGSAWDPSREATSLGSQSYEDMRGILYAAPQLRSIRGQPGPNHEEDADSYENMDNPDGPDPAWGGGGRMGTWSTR

[3] = target: T4, monkey CD19 on HEK293T-monkey CD19 cells (monkey); test: FACS on HEK293T-monkey CD19 cells
T4 construct: whole, on cells
In short: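 Antibody binding was read as MFI by flow cytometry and EC50 was taken from curve fitting. Before that, cells at 2×10⁶ cells/ml in PBS with 2% (w/w) BSA were exposed to samples for 2 h on ice and washed. Parental HEK293T cells were tested the same way.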

Row | Binder | Proportion of chimeric antibody positive cells to B cells (%) at 1 nM [1] [%] | Proportion of chimeric antibody positive cells to B cells (%) at 10 nM [1] [%] | Proportion of chimeric antibody positive cells to B cells (%) at 100 nM [1] [%] | EC50 (human CD19 on Raji cells) [nM] | Maximum mean fluorescence intensity (human CD19 on Raji cells) | EC50 [2] [nM] | Maximum mean fluorescence intensity [2] | EC50 [3] [nM] | Maximum mean fluorescence intensity [3]
1 | F4.96.6 (antibody, human IgG1, V domains shown, human-murine chimeric antibody, human IgG1) VH: EIQLQQSGPELVKPGASVKVSCKASGYAFSAYNIYWVKQSHGKSLEWIGYIDPYNSGTTYNQKFRGKATLTVDKSSNTAYMHLSSLTSEDSAVYYCTRDGDAMDYWGQGTSVTVSS VL: EILLTQSPAIIAASPGEKVTITCSASSGVIYMNWYQQKPGSSPKIWIYDVSTLASGVPARFSGSGSGTSFSFTINSMEAEDVATYYCQQRSSYPYTFGGGTKLEIK | 1 | 2 | 1 | 0.74 | 25700 | 1.16 | 52000 |  | 73
2 | F4.41.1 (antibody, human IgG1, V domains shown, human-murine chimeric antibody, human IgG1) VH: QVQLQQSGAELVRPGTSVKVSCKASGYAFTNYLIEWVKQRPGQGLEWIGVINPGSGDTLYNEKFKGKATLTADKSSTTAYMQLSGLTSDVSAIYFCARSPPITTIVADYFDYWGQGTTLTVSS VL: DIQMTQTTSSLSASLGDRVTISCRASQDISNYLNWYQQKPDGTVKLLIYYTSRLHSGVPSRFSGSGSGADYSLTISNLEQEDIATYFCQQGKTLPYTFGGGTKLEIK | 1 | 2 | 2 | 1.02 | 23400 | 1.49 | 48600 |  | 545
3 | F4.82.11 (antibody, human IgG1, V domains shown, human-murine chimeric antibody, human IgG1) VH: QVTLKESGPGILQASQTLSLTCSFSGFSLSTFGIGVGWVRQPSGKGLEWLAHIWWNDNKFFNTTLKNRLTLSKDPSNNQVFLKIASVDTADTATYYCARSRSALITTGLYAMDYWGQGTSVTVSS VL: DIQMTQTPSSLSASLGDRVTISCRSSQDISNYVNWYQQKPDGTVKVLINYTSRLHSGVPSRFSGSGSGTDYSLTISNLEQEDIASYFCQQGFTLPYTFGGGTKLEIK | 97 | 98 | 99 | 0.85 | 16600 | 0.32 | 26000 | 1.18 | 66600
4 | F4.78.1 (antibody, human IgG1, V domains shown, human-murine chimeric antibody, human IgG1) VH: QVQIQQSGAELARPGASVKLSCKASGYTFTNYWMQWIKQRPGQGLEWIGAIYPGDGDTRYTQKFKGKATLTADKSSSTAYMQLSSLASEDSAVYYCAREEVWSPYGMDYWGQGTSVTVSS VL: QIVLTQSPAIMSASPGEKVTITCSASSSVSYMGWFQQKPGTSPKLWIYSTSNLASGVPARFSGSGSGTSYSLTISRMEAEDAATYYCQQRSIYPLTFGAGTKLELK | 21 | 29 | 74 | 1.52 | 36900 | 0.51 | 44300 | 0.73 | 57000
5 | F4.49.11 (antibody, human IgG1, V domains shown, human-murine chimeric antibody, human IgG1) VH: DVQLRASGPGLVKPSQSLSLTCSVTGYSITSGYYWNWIRQFPGNKLEWMGCISYDGTNNYNPSLKNRISFTRDTSKNQFFLNLNSVTTEDSATYYCARRVYYRYDGVVDYWGQGTSVTVSS VL: ENVLTQSPAIMSASPGEKVTMTCSASSSVSYIHWYQQKSSTAPKLWIYDTSKLASGVPGRFSGSRSRNSYSLTISSMEAEDVATYYCFQGSGYPLTFGSGTKLEIK | 67 | 96 | 98 | 6.21 | 20300 | 3.1 | 44200 | 3.08 | 73500

Now those with a lower EC50 (human CD19 on Raji cells), led by results:

Row | Proportion of chimeric antibody positive cells to B cells (%) at 1 nM [1] [%] | Proportion of chimeric antibody positive cells to B cells (%) at 10 nM [1] [%] | Proportion of chimeric antibody positive cells to B cells (%) at 100 nM [1] [%] | EC50 (human CD19 on Raji cells) [nM] | Maximum mean fluorescence intensity (human CD19 on Raji cells) | EC50 [2] [nM] | Maximum mean fluorescence intensity [2] | EC50 [3] [nM] | Maximum mean fluorescence intensity [3] | Binder
6 | 1 | 2 | 3 | 0.69 | 25000 | 1.08 | 50000 |  | 70 | F4.35.5 (antibody, human IgG1, V domains shown, human-murine chimeric antibody, human IgG1) VH: EIQLQQSGPELVKPGASVKVSCKASGYAFTSYNMYWVKQSHGKSLEWIGYIDPYNGDTRYNQKFKGKATLTVDKSSSTAYMHLNSLTSEDSAVYYCTRSGTGRDYWGQGTTLTVSS VL: QIVLTQSPAIMSASPGEKVTMTCSASSSISYMFWFQQKPGSSPRLLIYDTSSLASGVPVRFSGSGSGTSYTLTISRMEAEDAATYYCQQWSNYPYTFGGGTKLEMK
7 | 20 | 35 | 67 | 0.6 | 26700 | 0.77 | 59900 | 1.24 | 69500 | F4.107.12 (antibody, human IgG1, V domains shown, human-murine chimeric antibody, human IgG1) VH: EVQLQQSGPELVKPGASVKMSCKASGYTFTSYVLHWVRQKPGQGLEWIGYFNPYNDGTEYNEKFKGKAILTSDKSSSTAYMELNSLTSEDSAVYYCVGGTYYYGSSYPFAYWGQGTLVTVST VL: DVVMTQISLSLPVSLGDQASISCRSSQSLIHSNGNTYLQWYLQKPGQSPKLLIYKVSNRLSGVPDRFSGSGSGTDFTLKISRVEAEDLGVYFCSQSTHVPYTFGGGTKLEIK
8 | 1 | 8 | 22 | 0.55 | 29300 | 0.48 | 52700 | 184 | 14300 | F4.48.12 (antibody, human IgG1, V domains shown, human-murine chimeric antibody, human IgG1) VH: QMQLKESGPGLVAPSQSLSITCTVSGFSLTDYGVSWIRQPPGKGLEWLGVIWGSGSTFYNSALTSRLSISKDNSKSQVFLKMNSLQTADTAMYFCAKHHYYGGSFAMDYWGQGTSVTVSS VL: DIQMTQASSSLSASLGDRVTISCKTSQDISNYLNWYQQKPDGTFKLLIHYTSRLHSGVPSRFSGSGSGSDYSLTISNLEREDIATYFCQQGNSLPYTFGGGTKLEMK
9 | 2 | 2 | 6 | 0.51 | 24600 | ~0.035 | 8490 |  | 58 | F4.37.6 (antibody, human IgG1, V domains shown, human-murine chimeric antibody, human IgG1) VH: QVQLQQSGAELARPGASVKLSCKASGYTFTSFWMQWLKQRPGQGLEWIGTIYPGDGDTRYTQKFKGKATLTADKSSNTAYMQLSSLASEDSAVYYCARGALSNYGGFAYWGQGTLVTVSA VL: NIVLTQSPASLAVSLGQRATISCRASESVDSYGHSFMHWYQQKPGQPPKLLIYLASNLESGVPARFSGSGSRTDFTLTIDPVEADDAATYYCQQNNEDPWTFGGGTKLEIK
